Reference: article PMC11116813, “Bipartite binding interface recruiting HP1 to chromosomal passenger complex at inner centromeres” (The Journal of Cell Biology, 2024)

Assays:
Conditions in all cases: both partners purified
[1] = target: T1, full-length human HP1α WT (hHP1α), recombinant (human, UniProt P45973 1-191); assay: ITC; iTC200, full-length HP1α dimer in the cell (60 μM for hINCENP, 80 μM for hSgo1), 600 μM hINCENP or 800 μM hSgo1 fragment in the syringe, 25°C, 20 mM NaPO4 pH 7.0, 150 mM NaCl, 1 mM DTT (Fig. 6A, Fig. S5A); one-site model
T1 construct: heterochromatin protein 1 alpha (HP1α), human, full length; Used as a dimer; The 6His-MBP tag was removed with TEV protease; also called HP1α (full-length, FL); HP1α dimer; source: E. coli BL21 DE3 (pCold), purified (Amylose Resin, TEV cleavage, Ni-NTA flow-through, HiTrap Q)
T1 sequence (P45973 whole entry, the tested form may be a part): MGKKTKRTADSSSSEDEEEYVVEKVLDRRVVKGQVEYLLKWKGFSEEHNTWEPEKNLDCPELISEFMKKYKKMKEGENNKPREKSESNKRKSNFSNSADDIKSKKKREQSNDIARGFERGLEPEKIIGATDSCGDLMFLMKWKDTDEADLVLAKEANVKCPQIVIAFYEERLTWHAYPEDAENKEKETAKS

[2] = target: T1, full-length human HP1α WT (hHP1α), …; assay: ITC; VP-ITC, 10 μM INCENP fragment in the cell, 100 μM HP1α dimer in the syringe, 20°C, 10 mM Tris pH 8.0, 150 mM NaCl, 1 mM DTT (Fig. 2C); one-site model
[3] = target: T1, full-length human HP1α WT (hHP1α), …; assay: ITC; VP-ITC, 10 μM INCENP peptide or fragment in the cell, 100 μM HP1α full-length or CSD dimer in the syringe, 20°C, 20 mM NaPO4 pH 7.0, 150 mM NaCl, 1 mM DTT (Fig. 2D, Fig. 3D and E); one-site model
[4] = target: T1, full-length human HP1α WT (hHP1α), …; assay: pull-down; 10 μM full-length hHP1α mixed with 5 μM GST-tagged hINCENP -6His fragments in 20 mM NaPO4 pH 7.0, 150 mM NaCl, 1 mM DTT, 30 min at 4°C; Glutathione Sepharose 4B; CBB staining

B1: human Sgo1 fragment (405-494), Tyr-added, GST removed (domain or fragment)
chain: YAKRALKYTDEKETEGSKPTKTPTTTPPETQQSPHLSLKDITNVSLYPVVKIRRLSLSPKKNKASPAVALPKRRCTASVNYKEPTLASKLR
notes: tyrosine residue inserted after the PreScission site, to determine the concentration; Sgo1 (shugoshin 1), human, residues 405-494, contains the canonical PVI motif; also called Sgo1 fragment containing the PVI motif (residues 405–494); Sgo1 405–494; source: E. coli BL21 Codon Plus (pGEX6P1), purified (Glutathione Sepharose, PreScission cleavage, SEC)
For B1, the Kd [1] was roughly 4000 nM.

B2: human INCENP (121-270) WT -6His, GST removed (domain or fragment, UniProt Q9NQS7 121-270, looked up)
chain: LRRVTRAAAAAAAATMALAAPSSPTPESPTMLTKKPEDNHTQCQLVPVVEIGISERQNAEQHVTQLMSTEPLPRTLSPTPASATAPTSQGIPTSDEESTPKKSKARILESITVSSLMATPQDPKGQGVGTGRSASKLRIAQVSPGPRDSP
notes: The methods describe no removal of the 6His tag; source: E. coli BL21 Codon Plus (pGEX6P1), purified (Ni-NTA, PreScission cleavage, Glutathione Sepharose flow-through, SEC)
For B2, the Kd [2] was 42 nM.

B3: human INCENP (160-210) -6His, GST removed (domain or fragment, UniProt Q9NQS7 160-210, looked up)
chain: HTQCQLVPVVEIGISERQNAEQHVTQLMSTEPLPRTLSPTPASATAPTSQG
notes: INCENP, human, residues 160-210; Isotope-labelled (15N or 13C/15N) in the NMR experiments and unlabelled in ITC; also called 15N-INCENP (160–210) -6His; 13C/15N-INCENP (160–210) -6His; source: E. coli BL21 Codon Plus (pGEX6P1), purified (Ni-NTA, PreScission cleavage, Glutathione Sepharose flow-through, SEC); for NMR grown in M9 medium with 15N-ammonium chloride with or without 13C-glucose; not …
B3: binds [3].

B4: GST-tagged human INCENP (160-210) -6His (domain or fragment, UniProt Q9NQS7 160-210, looked up)
chain: HTQCQLVPVVEIGISERQNAEQHVTQLMSTEPLPRTLSPTPASATAPTSQG
notes: INCENP, human, residues 160-210; also called INCENP fragment 160–210; source: E. coli BL21 Codon Plus (pGEX6P1), purified (non-cleaved version, SEC); not shown: His6, C-terminal, kept
B4: binds [4].

B5: human INCENP (121-210) -6His, GST removed (Fig. 2D) (domain or fragment, UniProt Q9NQS7 121-210, looked up)
chain: LRRVTRAAAAAAAATMALAAPSSPTPESPTMLTKKPEDNHTQCQLVPVVEIGISERQNAEQHVTQLMSTEPLPRTLSPTPASATAPTSQG
notes: source: E. coli BL21 Codon Plus (pGEX6P1), purified (Ni-NTA, PreScission cleavage, Glutathione Sepharose flow-through, SEC)
B5: binds [3].
